Reference: US20030232052A1 (CALIFORNIA INSTITUTE OF TECHNOLOGY, published 2003)
Read-outs that look alike come from different tables or passages of the source.

What was measured:
[1] = target: mutant Htt exon 1 with 103 polyQ repeats fused to EGFP (UniProt P42858); experiment: cell-based or functional assay
[2] = target: mutant Htt exon 1 with 103 polyQ repeats fused to EGFP (UniProt P42858); experiment: cell-based or functional assay; remark: listed apart in the source
[3] = target: T1, mutant Htt exon 1 with 103 polyQ repeats fused to EGFP (UniProt P42858 1-88; P42212 1-238 = GFP); experiment: coimmunoprecipitation from 293 cell lysates with anti-Flag Ab, blot with anti-HD1-17
T1 construct: Expressed in 293 cells; Order of pieces follows 'Htt exon 1-EGFP'; also called PQ103
Experimental: The scFvs and IκBα in Triton X-100 cell extracts were precipitated with anti-Flag Ab, and the precipitates were subjected to SDS-PAGE.
Briefly, cells were harvested 24 hours after transfection and lysed by sonication in buffer A (25 mM Hepes, pH 7.4/2.5 mM MgCl₂/50 mM NaCl/1 mM EDTA/1% Triton X-100). After clearing the lysates by centrifugation at 14,300 rpm (Eppendorf microcentrifuge) for 10 minutes at 4° C., 200 μg of each lysate was incubated at 4° C. with rocking for 2 hours with a 40-μl slurry of anti-Flag Ab coupled to protein A beads. The beads were then washed five times in buffer A by using centrifugation at 5,000 rpm, and the complexes were resolved on SDS-PAGE. […] Secondary antibodies conjugated to horseradish peroxidase (HRP) were used to detect the reactive protein bands by enhanced chemiluminescence (Santa Cruz Biotechnology).

Question: With “Flag-tagged MW2 scFv expressed in 293 cells” as the molecule, how does the SDS-insoluble aggregated Htt, scanned band at the top of the gel (no scFv: 48.8) (arbitrary units) [1] read?
Answer: 54.3

Question: What about the increase in mutant Htt-induced TUNEL staining (TUNEL+ cells), 293 cells [1] of the same molecule?
Answer: 67%

B1: Flag-tagged MW7 scFv expressed in 293 cells (scFv)
scFv: MDYKDDDDKVAQVKLQESGGGLVQPGGSMKLSCAASGFTFSDAWMDWVRQSPEKGLSGVAEIRSKANNHATYYAESVKGRFTISRDDSKSSVYLQMNSLRAEDTGIYYCIYAGFAYWGQGTTVTVSSGGGGSGGGGSGGGGSDIELTQSPSSLAMSVGQKVTMSCKSSQSLLNSSNQKNYLAWYQQKPGQSPKLLVYFASTRESGVPDRFIGSGSGTDFTLTISSVQAEDLADYFCQQHYSTPWTFGGGTKLEIK
Question: For B1, which SDS-insoluble aggregated Htt, scanned band at the top of the gel (no scFv: 48.8) (arbitrary units) [2] is on record?
Answer: 0.2

B2: Flag-tagged IκBα (other, UniProt P25963 1-317, looked up, not shown: small tags and cut ends)
chain: MFQAAERPQEWAMEGPRDGLKKERLLDDRHDSGLDSMKDEEYEQMVKELQEIRLEPQEVPRGSEPWKQQLTEDGDSFLHLAIIHEEKALTMEVIRQVKGDLAFLNFQNNLQQTPLHLAVITNQPEIAEALLGAGCDPELRDFRGNTPLHLACEQGCLASVGVLTQSCTTPHLHSILKATNYNGHTCLHLASIHGYLGIVELLVSLGADVNAQEPCNGRTALHLAVDLQNPDLVSLLLKCGADVNRVTYQGYSPYQLTWGRPSTRIQQQLGQLTLENLQMLPESEDEESYDTESEFTEFTEDELPYDDCVFGGQRLTL
notes: Order of pieces follows the name Flag-IκBα; also called Flag-IκBα
Question: Does B2 bind [3]?
Answer: no binding
